Here are results for one substance from PMC5536852.

For assay [1], the target named is PP1γ, active form (His-tagged protein phosphatase 1 gamma) (UniProt P36873). Put plainly: enzyme inhibition kinetics.
Assay [2] shares this target. Briefly: enzyme inhibition kinetics. This is another data set of the same source.

Where two headings read alike, the source gives them in different places.

UniProt P36873, sequence (P36873 whole entry): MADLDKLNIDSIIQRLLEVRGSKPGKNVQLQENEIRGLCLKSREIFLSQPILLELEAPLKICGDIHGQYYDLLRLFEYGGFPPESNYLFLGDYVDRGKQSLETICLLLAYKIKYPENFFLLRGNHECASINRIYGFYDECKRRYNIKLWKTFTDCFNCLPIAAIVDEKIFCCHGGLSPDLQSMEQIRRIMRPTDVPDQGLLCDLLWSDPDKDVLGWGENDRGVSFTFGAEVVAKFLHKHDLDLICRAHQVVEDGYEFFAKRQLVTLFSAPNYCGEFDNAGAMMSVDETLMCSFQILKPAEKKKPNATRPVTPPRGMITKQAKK

On to “His-tagged RRM1 (isolated RNA recognition motif 1 of SRSF1) (domain or fragment)”, for which the Ki was found to be 410 nM in assay [1] and 350 nM in assay [2].
